How the values were obtained:
SL 7838 = test: Effect of prodrugs on the delivery strain SL 7838; conditions: CB 1954 15 μM
Excerpt: We tested the S. typhimurium strain 7838 (SL 7838), transformed with different plasmids (see Methods), as a potential vehicle to attain this objective. IPTG was used to induce the wild type and mutant enzymes encoded by the plasmids. In these experiments, the prodrugs were activated by bacteria producing the specified enzymes instead of, as in previous experiments, the added enzymes.

ChrR = target: T1, ChrR (Escherichia coli, UniProt P0AGE6, E57D/G167S); assay type: biochemical, E. coli; conditions: CNOB versus CB 1954
T1 construct: made in house; host or cells: E. coli BL21 (DE3)
Excerpt: To evaluate if CNOB competes with CB 1954 on the active site of the enzyme we performed a competition assay.

HeLa cells [1] = test: Confocal imaging of CNOB reduction in HeLa cells infected with SL 7838 expressing GFP and Y6; assay type: cell-based, Human; conditions: HeLa cells infected with SL 7838 expressing GFP and Y6 (FIG. 8)
HeLa cells [2] = conditions: for HeLa cell killing by CNOB: CNOB as prodrug, pure protein (FIG. 7)
HeLa cells [3] = test: Viability test: prodrug activated by purified enzyme, loss of HeLa cell viability
Experimental: Viability tests. As mentioned in the Results section, these involved two incubation periods, prodrug activation, followed by assay of the toxic moiety generated by determining the loss of HeLa cell viability. […] Following prodrug reduction at 37° C., 0.5 ml of fresh HeLa cells (˜0.5-1×10^5) were added. The duration of the prodrug reduction was 30 min in all experiments; the HeLa cell exposure periods were as specified in the text. After the latter incubation, 20 μl of the color reagent, CellTiter 96®AqueousOne (PROMEGA Inc) were added to 100 μl aliquots of the reaction mixture. Following an additional 1 h of incubation, A490 was measured in a BioTek microplate S330 reader.
Prodrug activation by wild type YieF and the evolved enzymes. […] The experiments involved two incubation periods. In the first period, the enzyme and the drug were incubated to generate the toxic species; in the second period, which was initiated with the addition of HeLa cells to the reaction mixture, the extent of drug activation was inferred from the loss of HeLa cell viability. In the experiments described in this section, both the prodrug reduction and the subsequent cell exposure periods were of 30 min duration, and the enzyme and drug concentrations were 50 μg ml^−1 and 15 μM, respectively. […]

HeLa cells [4] = test: Cell survival assay using SL 7838 to deliver the wild type or evolved enzymes; assay type: cell-based, Human; conditions: for amount of bacteria required / killing of surface-adhered HeLa-luc cells: SL 7838 expressing the enzyme, 15 μM CB 1954, 1 h + 3 h incubation, luciferase read-out (FIG. 6)
Excerpt: Cell survival assay, using SL 7838 to deliver the wild type or evolved enzymes. SL 7838 contains deletions in the aroA and sopE genes. This strain is non-pathogenic in immunocompetent mice, but can colonize and persist in solid tumors. The strain was transformed with appropriate plasmids to express the yief (now chrR), nfsA or theY6 (now chrR6)-encoding yieFY6 gene. It was also transformed with a vector containing the lux operon, expressing the bacterial luciferase (product of the luxR gene) and its substrate. HeLa cells stably transfected to express firefly luciferase were added to black walled 96-well plates at a density of 1000 cells well^−1. Once the cells had attached, a dilution series of non-transformed SL 7838 or SL 7838 transformed with plasmids expressing the appropriate genes (Table 1) was added to the plates; 0.5 mM IPTG was added to induce the genes on the plasmids. After 1 h incubation, 15 μM CB 1954 was added. Light output per well produced from bacterial luciferase (no additional substrate added) or bacterial and firefly luciferase (following addition of 2 μl of 30 mg ml^−1 luciferin per well) was measured on an IVIS50 system (Xenogen Corp.). Percentage HeLa cell survival was determined by calculating firefly luciferase expression (total light output—bacterial light output) relative to wells containing unchallenged HeLa cells or HeLa cells treated with 70% ethanol. All experiments were performed at least in triplicate; error bars in the figures are SEM.
SL 7838 as a delivery vehicle to tumor cells. […] We tested the S. typhimurium strain 7838 (SL 7838), transformed with different plasmids (see Methods), as a potential vehicle to attain this objective. IPTG was used to induce the wild type and mutant enzymes encoded by the plasmids. […]
Further analysis was performed to test the efficiency of SL 7838 to deliver the enzymes to surface-adhered HeLa cells. […] After a further 3 h incubation period the firefly luciferase substrate (luciferin) was added, and the light output was used to quantify HeLa cell survival (FIG. 6).

NC(=O)c1cc(N2CC2)c([N+](=O)[O-])cc1[N+](=O)[O-] [CB 1954, 5-aziridinyl-2,4-dinitrobenzamide]
effect on replication of SL7838 (SL 7838): did not inhibit replication

O=c1c(Cl)c2oc3cc([N+](=O)[O-])ccc3nc-2c2ccccc12 [CNOB]
mode of inhibition in competition assay (ChrR): competitive inhibitors of each other | bystander effect (red fluorescence in uninfected cells) (HeLa cells [1]): effective bystander effect | prodrug efficiency in in vitro cytotoxicity assays (HeLa cells [2]; compared with CB1954): same efficiency as CB1954

B1: Y6: evolved YieF enzyme with four substitutions: V120A, Y128N, T160N and Q175L (protein, UniProt P0AGE6 1-188, looked up, variant V120A Y128N T160N Q175L)
Quinone reductase: MSEKLQVVTLLGSLRKGSFNGMVARTLPKIAPASMEVNALPSIADIPLYDADVQQEEGFPATVEALAEQIRQADGVVIVTPEYNYSVPGGLKNAIDWLSRLPDQPLAGKPVLIQTSSMGAIGGARCQNHLRQILVFLDAMVMNKPEFMGGVIQNKVDPQNGEVIDQGTLDHLTGLLTAFGEFIQRVKI
greater reduction in HeLa cells survival compared to the controls (HeLa cells [3]; 15 μM MMC or CB 1954, 50 μg ml^−1 enzyme (FIG. 1)): ~90% | activity for prodrug reduction relative to wild type (HeLa cells [3]; MMC or CB 1954 (FIG. 1)): improved activity for prodrug reduction | amount of bacteria required / killing of surface-adhered HeLa-luc cells (HeLa cells [4]): at least an order of magnitude less bacteria | reduction in survival of HeLa cells (HeLa cells [4]; in the presence of CB 1954 (15 μM), enzyme expressed by SL 7838 bacteria, IPTG induced (FIG. 5)): 90% | HeLa cell killing by CNOB (HeLa cells [2]): more active

B2: YieF: native E. coli NAD(P)H oxidoreductase ChrR (formerly called YieF), SEQ ID NO:1 (protein)
chain: MSEKLQVVTLLGSLRKGSFNGMVARTLPKIAPASMEVNALPSIADIPLYDADVQQEDGFPATVEALAEQIRQADGVVIVTPEYNYSVPGGLKNAIDWLSRLPDQPLAGKPVLIQTSSMGVIGGARCQYHLRQILVFLDAMVMNKPEFMGGVIQNKVDPQTGEVIDQSTLDHLTGQLTAFGEFIQRVKI
modifications: E. coli
amount of bacteria required / killing of surface-adhered HeLa-luc cells (HeLa cells [4]): scarcely greater than seen in controls | HeLa cell killing by CNOB (HeLa cells [2]): significant increase of cell killing compared to the control

Reference: patent US7687474B2, “Nitroreductase enzymes” (The Board of Trustees of the Leland Stanford Junior …, priority 2005, dated 2010)
